Measurements: patent US10155811B2, “APLNR modulators and uses thereof” (Regeneron Pharmaceuticals, Inc., priority 2013, dated 2018)

T1: hAPLNR (Homo sapiens, UniProt P35414)
T1 sequence (P35414 1-380): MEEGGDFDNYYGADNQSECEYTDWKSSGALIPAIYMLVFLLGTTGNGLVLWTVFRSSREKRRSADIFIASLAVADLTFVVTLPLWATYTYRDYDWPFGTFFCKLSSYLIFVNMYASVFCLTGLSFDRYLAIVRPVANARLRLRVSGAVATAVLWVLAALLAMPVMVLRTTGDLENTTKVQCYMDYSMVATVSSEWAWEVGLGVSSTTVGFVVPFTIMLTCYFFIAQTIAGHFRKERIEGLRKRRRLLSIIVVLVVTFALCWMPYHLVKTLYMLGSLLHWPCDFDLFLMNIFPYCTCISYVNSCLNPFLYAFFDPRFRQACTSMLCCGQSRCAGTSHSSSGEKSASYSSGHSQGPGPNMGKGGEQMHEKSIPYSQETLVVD


Tests used:
[1] = test system: HEK293 parental cells; experiment: FACS binding to HEK293 parental cells; conditions: Table 3; 10 μg/mL antibody; anti-mouse IgG Alexa 647
Description: Binding ratios for human APLNR binding to purified anti-APLNR monoclonal antibodies were determined by a fluorescence-activated cell sorting (FACS) binding assay. […] The resulting stable cell lines, HEK293/CRE-luc/hAPLNR and HEK293/CRE-luc/MfAPLNR, were maintained in DMEM containing 10% FBS, NEAA, and penicillin/streptomycin with either 100 μg/mL Hygromycin B for hAPLNR cells or 500 μg/mL G418 for MfAPLNR cells.
For the FACS analysis, HEK293 parental, HEK293/CRE-luc/hAPLNR, and, HEK293/CRE-luc/mfAPLNR cells were dissociated using Enzyme Free Dissociation reagent (#S-004, Millipore, Billerica, Mass., USA) and 10^6 cells/well were plated onto 96-well v-bottom plates in PBS containing 1% FBS. […] Cells were then filtered and analyzed on Accuri Flow Cytometer (BD Biosciences, San Jose, Calif., USA). Unstained and secondary antibody alone controls were also tested for binding to all cell lines. […] Geometric mean (Geom. mean) of fluorescence for each antibody was then normalized to geometric mean of unstained cells to obtain relative binding of antibody (binding ratios) per each cell type: HEK293 (parental), HEK293/CRE-luc/hAPLNR and HEK293/CRE-luc/MfAPLNR.

[2] = biological target: T1, hAPLNR; experiment: CRE-luciferase cyclic AMP assay, activation of hAPLNR (inhibition of Forskolin-induced cAMP) in HEK293/CRE-luc/hAPLNR cells; type: cell-based; parameters: expressed in transfected cells; conditions: without Apelin; for % Activation at 100 nM mAb (at 10 uM Forskolin) / % Activation at 100 nM mAb (at 5 uM Forskolin): Table 6A, % of maximum Apelin activation
Description: The ability of anti-APLNR antibodies to activate hAPLNR-mediated cell signaling was measured using a cyclic AMP assay. The hAPLNR is a 7-transmembrane G-protein coupled receptor (GPCR).
(§1) The resulting cell line, HEK293/CRE-luc/hAPLNR, was maintained in DMEM containing 10% FBS, NEAA, pencillin/streptomycin, and 100 μg/mL Hygromycin B.
(§2) Testing of antibodies included a no antibody control.
(§3) The results of all assays were analyzed using nonlinear regression (4-parameter logistics) within Prism 5 software (GraphPad).

[3] = biological target: T1, hAPLNR; experiment: CRE-luciferase cyclic AMP assay, inhibition of hAPLNR in the presence of 100 ρM Apelin in HEK293/CRE-luc/hAPLNR cells; type: cell-based; parameters: expressed in transfected cells; conditions: for inhibition (maximum blockade) of 100 ρM Apelin activation: unmodified anti-APLNR antibodies
Description: as §1, §2, §3

% Activation at 100 nM mAb (at 10 uM Forskolin) [2] | activation of hAPLNR, % of maximum Apelin activation at 100 nM ([2]; 100 nM highest antibody dose tested) [%] | % Activation at 100 nM mAb (at 5 uM Forskolin) [2] | % Inhibition at 100 nM antibody, in the presence of 100 ρM Apelin (at 5 μM Forskolin) ([3]; Table 6D) | % Inhibition at 100 nM antibody, in the presence of 100 ρM Apelin (at 5 μM Forskolin) ([3]; Table 6C) | Molecule | Binding Ratio of Geom. Mean to Unstained Cells, HEK293 Parental [1] | inhibition (maximum blockade) of 100 ρM Apelin activation [3]
12% | 12 | – | – | – | H2aM9227N: anti-APLNR antibody, HCVR/LCVR SEQ ID NO: 50/58, mouse IgG2a Fc (antibody, V domains shown, mouse IgG2a Fc) VH: EVQLVESGGGLVQPGGSLRLSCAASGFTFSSFWMSWVRQVPGKGLEWVANIKQDGSEKYYVDSVKGRFTISRDNAKNSLYLQMNSLRAEDTAVYYCARDRFGYSFYDKGVRYYYGMDVWGQGTTVTVSS VL: DIQMTQSPSSLSVSVGDRVTITCRASQGIRNDLGWYQQKPGKAPKRLIYATSSLQSGVPSRFSGSGSGTEFTLTISGLQPEDFATYYCLQHNSYPRTFGQGTKVEIK | 4 | –
– | – | No Activation | No Inhibition | – | H4H9113P: anti-APLNR antibody, HCVR/LCVR SEQ ID NO: 210/218, human IgG4 Fc (antibody, V domains shown, human IgG4 Fc) VH: QVQLVQSGAEVKKPGASVEVSCKASGYTFTDYYIHWIRQAPGQGLEWMGWINPDSGRTNYAQKFQVRVTMTRDTSITTAYMELNRLKSDDTAVYYCARGPLRGYSGYDFFDYWGQGTLVTVSS VL: DIQMTQSPSSLSASVGDRVTITCRASQGIRNDLGWYQQKPGKAPNRLIYAASSLQSGVPSRFSGSGSGTEFTLTISSLHPEDFATYSCLQHNSFPLTFGGGTKVEIK | – | did not demonstrate any measurable blockade
No Activation | – | – | – | 11% (IC) | H2aM9222N: anti-APLNR antibody, HCVR/LCVR SEQ ID NO: 34/42, mouse IgG2a Fc (antibody, V domains shown, mouse IgG2a Fc) VH: EVQLVESGGGLVQPGGSLRLSCAASGFTFSNYWMSWVRQAPGKGLEWVANIKQDGSERYYVGSVKGRFTISRGDAENSLYLQMNSLRAEDTAVYYCARDRFGYSAYDKGVRYYYGMDVWGQGTTVTVSS VL: DIQMTQSPSSLSASVGDRVTITCRASQGIRNDLGWYQQKPGKAPKRLIYAASSLQSGVPSRFSGSGSGTEFTLTISSLQPEDFATYYCLQHNSYPRTFGQGTKVEIK | 2 | –
No Activation | – | – | – | – | H2aM9228N: anti-APLNR antibody, HCVR/LCVR SEQ ID NO: 66/74, mouse IgG2a Fc (antibody, V domains shown, mouse IgG2a Fc) VH: EVQLVESGGGLVQPGGSLRLSCAASGFTFSNYWMSWVRLAPGKGLEWVANIKQDGSERYYVGSVKGRFTISRGDAKNSLYLQMNSLRAEDTAVYYCARDRFGYSAFDKGVRYYYGMDVWGQGTTVTVSS VL: DIQMTQSPSSLSASVGDRVTITCRASQGIRNDLGWYQQKPGKAPKRLIYAASSLQSGVPSRFSGSGSGTEFTLTISSLQPEDFATYYCLQHNSYPRTFGQGTKVEIK | 3 | –
No Activation | – | – | – | – | H2aM9230N: anti-APLNR antibody, HCVR/LCVR SEQ ID NO: 82/90, mouse IgG2a Fc (antibody, V domains shown, mouse IgG2a Fc) VH: EVQLVESGGGLVQPGGSLRLSCAASGFTFSSFWMSWVRQVPGKGLQWVANIKQDGSEKYYVDSVKGRFTISRDNAKNSLYLQMNSLRAEDTAVYYCARDRFGYSVYDKGVRYYYGMDVWGQGTTVTVSS VL: DIQMTQSPSSLSVSVGDRVTITCRASQGIRNDLGWYQQKPGKAPKRLIYAASSLQSGVPSRFSGSGSGTEFTLTISGLQSEDFATYYCLQHKSYPRTFGQGTKVEIK | 3 | –
– | – | No Activation | No Inhibition | – | H4H9104P: anti-APLNR antibody, HCVR/LCVR SEQ ID NO: 178/186, human IgG4 Fc (antibody, V domains shown, human IgG4 Fc) VH: QVQLVESGGDLVKPGGSLRLSCAASGFTFSDYYMNWIRQAPGKGLEWVSYISSSGSTIHYADSVKGRFTISRDNAKNLVYLRMNSLRAEDTAVYFCAREREVHDYSDPYFFFYGMDVWGQGTTVTVSS VL: DIQMTQSPSSVSASVGDRVTITCRASQDVSSWLAWYQHKPGKAPKLLIFAASSLQSGVPSRFSGSGSGTDFTLTISSLQSEDFATYYCQQANSFPLTFGGGTKVEIK | – | did not demonstrate any measurable blockade
– | – | No Activation | No Inhibition | – | H4H9103P: anti-APLNR antibody, HCVR/LCVR SEQ ID NO: 162/170, human IgG4 Fc (antibody, V domains shown, human IgG4 Fc) VH: EVQLVESGGGLVQPGRSLRLSCAASGFTFDDYAMHWVRQVPGKGLEWVSGITWNSGDIGYADSVKGRFTISRDNAKNSLYLQMNSLRAEDTALYYCTKDKDSSGYYGIDVWGQGTTVTVSS VL: DIQMTQSPSSVSASVGDRVTITCRASQGIRTWLAWYQQKPGKAPKLLIYAASSLQSGVPSRFSGSESGTDFTLTISSLQPEDFATYYCQQANSFPFTFGPGTKVDIK | – | did not demonstrate any measurable blockade
– | – | No Activation | No Inhibition | – | H4H9101P: anti-APLNR antibody, HCVR/LCVR SEQ ID NO: 146/154, human IgG4 Fc (antibody, V domains shown, human IgG4 Fc) VH: QVQLVQSGAEVKKPGASVEVSCKASGYTFTDYYIHWIRQAPGQGLEWMGWINPDSGRTNYAQKFQVRVTMTRDTSITTAYMELNRLKSDDTAVYYCARGPLRGYSGYDFFDYWGQGTLVTVSS VL: DIQLTQSPSFLSASVGDRVTITCWASQGISSYLAWYQQKPGKAPKLLIYAASTLQSGVPSRFSGSGSGTEFTLTISSLQPEDFASYFCQQLNSNPRTFGQGTKVEIK | – | did not demonstrate any measurable blockade
– | – | No Activation | No Inhibition | – | H4H9112P: anti-APLNR antibody, HCVR/LCVR SEQ ID NO: 194/202, human IgG4 Fc (antibody, V domains shown, human IgG4 Fc) VH: QVQLVQSGAEVKKPGASVEVSCKASGYTFTDYYIHWIRQAPGQGLEWMGWINPDSGRTNYAQKFQVRVTMTRDTSITTAYMELNRLKSDDTAVYYCARGPLRGYSGYDFFDYWGQGTLVTVSS VL: DIQMTQSPSSLSAFVGDRVTITCRASQSISSYLNWYQQKPGKAPKLLIYTASTLQRGVPSRFRGSGSGTDFTLTISSLQPEDFATYYCHQTYSIPITFGQGTRLEIK | – | did not demonstrate any measurable blockade
No Activation | – | – | – | – | H1M9207N: anti-APLNR antibody, HCVR/LCVR SEQ ID NO: 2/10, mouse IgG1 Fc (antibody, V domains shown, mouse IgG1 Fc) VH: EVQLVESGGGLAQPGGSLRLSCAASGFTFSNYWMSWVRQAPGKGLEWVANIKQDGSEKYYLESVKGRFTISRDNAKNLLYLQMNSLRAEDTAVFYCARPGLLRFLEPGRRYYSGMNVWGQGTTVTVSS VL: DIQLTQSPSFLSASVGDRVTITCWASQGIRSYLAWYQQKPGKAPKLLIYAASTLQSGVPSRFSGSGSGTEFTLTISSLQPEDFATYYCQQFNSYPWTFGQGTKVEIK | 4 | –
